Reference: patent US11230581B2, “Peptides and combination of peptides for use in immunotherapy against ovarian cancer and other cancers” (Immatics Biotechnologies GmbH, priority 2015, dated 2022)

molecular target: HLA-A*02:01 (Homo sapiens, UniProt P04439, D140Y/D185E/D98H/E176V/E277Q/G131W/G231S/I119V/I121R/I166T/I218V/L300P/L318F/N151K/N90K/P208A/P217A/Q86G/Q94H/R138H/R169H/T345S); assay: MHC binding assay (UV-ligand exchange, β2m ELISA, peptide exchange yield); settings: binding of HLA-class I restricted peptides to HLA-A*02:01, UV-ligand exchange
Method in brief: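 Yield of stabilized complexes quantified via the β2m light chain in an ELISA (streptavidin capture, 100-fold diluted monomers, HRP anti-β2m 2 ug/ml at 37 °C, TMB, A450). The complexes come from UV-triggered replacement of a photocleavable ligand by the candidate peptide.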

Substance	Peptide exchange (MHC class I binding score, peptide exchange yield)
49 (YLPAVFEEV; listed as Homo sapiens) [compound 49]	“+++” (≥50 = +++)
356 (KLLGKLPEL; listed as Homo sapiens) [compound 356]	“+++” (≥50 = +++)
326 (FLPEALDFV; listed as Homo sapiens) [compound 326]	“+++” (≥50 = +++)
606 (ALWETEVYI; listed as Homo sapiens) [compound 606]	“+++” (≥50 = +++)
547 (TLDITPHTV; listed as Homo sapiens) [compound 547]	“+++” (≥50 = +++)
464 (ALNDCIYSV; listed as Homo sapiens) [compound 464]	“+++” (≥50 = +++)
18 (YLVAKLVEV; listed as Homo sapiens) [compound 18]	“++” (≥20% = ++)
296 (FMEGAIIYV; listed as Homo sapiens) [compound 296]	“+++” (≥50 = +++)
59 (IMEDIILTL; listed as Homo sapiens) [compound 59]	“+++” (≥50 = +++)
319 (SLEPQIQPV; listed as Homo sapiens) [compound 319]	“++” (≥20% = ++)
122 (FLLAEDDIYL; listed as Homo sapiens) [compound 122]	“+++” (≥50 = +++)
312 (IISDLTIAL; listed as Homo sapiens) [compound 312]	“+++” (≥50 = +++)
226 (MLYVVPIYL; listed as Homo sapiens) [compound 226]	“++” (≥20% = ++)
572 (ALADLIEKELSV; listed as Homo sapiens) [compound 572]	“+++” (≥50 = +++)
150 (RLWEEGEELEL; listed as Homo sapiens) [compound 150]	“+++” (≥50 = +++)
480 (ALLEDSCHYL; listed as Homo sapiens) [compound 480]	“+++” (≥50 = +++)
371 (FLQAHLHTA; listed as Homo sapiens) [compound 371]	“++++” (≥75% = ++++)
281 (ILRESTEEL; listed as Homo sapiens) [compound 281]	“+++” (≥50 = +++)
379 (IMEGTLTRV; listed as Homo sapiens) [compound 379]	“++” (≥20% = ++)
267 (ALQDFLLSV; listed as Homo sapiens) [compound 267]	“+++” (≥50 = +++)
311 (RLYTGMHTV; listed as Homo sapiens) [compound 311]	“+++” (≥50 = +++)
308 (SQYSGQLHEV; listed as Homo sapiens) [compound 308]	“+++” (≥50 = +++)

Substance	Peptide exchange (MHC class I binding score, peptide exchange yield)
116 (YHIDEEVGF; listed as Homo sapiens) [compound 116]	“+” (≥10% = +)
635 (SLDSTLHAV; listed as Homo sapiens) [compound 635]	“+++” (≥50 = +++)
4 (GIMEHITKI; listed as Homo sapiens) [compound 4]	“++++” (≥75% = ++++)
375 (SLTETIEGV; listed as Homo sapiens) [compound 375]	“++” (≥20% = ++)
508 (ILAQEQLVVGV; listed as Homo sapiens) [compound 508]	“+++” (≥50 = +++)
252 (LLIGTDVSL; listed as Homo sapiens) [compound 252]	“+++” (≥50 = +++)
206 (VLQEGKLQKLAQL; listed as Homo sapiens) [compound 206]	“+++” (≥50 = +++)
109 (IILSILEQA; listed as Homo sapiens) [compound 109]	“++++” (≥75% = ++++)
357 (SMHDLVLQV; listed as Homo sapiens) [compound 357]	“+++” (≥50 = +++)
502 (RLLAQVPGL; listed as Homo sapiens) [compound 502]	“+++” (≥50 = +++)
434 (KVSNSGITRV; listed as Homo sapiens) [compound 434]	“++” (≥20% = ++)
496 (FLVEKQPPQV; listed as Homo sapiens) [compound 496]	“+++” (≥50 = +++)
81 (FLFSQLQYL; listed as Homo sapiens) [compound 81]	“++” (≥20% = ++)
68 (SLMELPRGLFL; listed as Homo sapiens) [compound 68]	“++++” (≥75% = ++++)
350 (ALLDVTHSELTV; listed as Homo sapiens) [compound 350]	“+++” (≥50 = +++)
173 (LLDSASAGLYL; listed as Homo sapiens) [compound 173]	“+++” (≥50 = +++)
500 (SLMEDQVLQL; listed as Homo sapiens) [compound 500]	“+++” (≥50 = +++)
316 (ILLERLWYV; listed as Homo sapiens) [compound 316]	“+++” (≥50 = +++)
384 (ILFANPNIFV; listed as Homo sapiens) [compound 384]	“+++” (≥50 = +++)
455 (SLLKEPQKVQL; listed as Homo sapiens) [compound 455]	“++” (≥20% = ++)
471 (YLYNNMIAKI; listed as Homo sapiens) [compound 471]	“+++” (≥50 = +++)
